The target of assay [1] is T1, Mouse CD44 extracellular domain, recombinant (mouse, UniProt P15379 23-685).
T1 construct: CD44, mouse, extracellular domain; also called mCD44; murine CD44; source: expi293 cells, purified from the conditioned medium
T1 sequence (looked up): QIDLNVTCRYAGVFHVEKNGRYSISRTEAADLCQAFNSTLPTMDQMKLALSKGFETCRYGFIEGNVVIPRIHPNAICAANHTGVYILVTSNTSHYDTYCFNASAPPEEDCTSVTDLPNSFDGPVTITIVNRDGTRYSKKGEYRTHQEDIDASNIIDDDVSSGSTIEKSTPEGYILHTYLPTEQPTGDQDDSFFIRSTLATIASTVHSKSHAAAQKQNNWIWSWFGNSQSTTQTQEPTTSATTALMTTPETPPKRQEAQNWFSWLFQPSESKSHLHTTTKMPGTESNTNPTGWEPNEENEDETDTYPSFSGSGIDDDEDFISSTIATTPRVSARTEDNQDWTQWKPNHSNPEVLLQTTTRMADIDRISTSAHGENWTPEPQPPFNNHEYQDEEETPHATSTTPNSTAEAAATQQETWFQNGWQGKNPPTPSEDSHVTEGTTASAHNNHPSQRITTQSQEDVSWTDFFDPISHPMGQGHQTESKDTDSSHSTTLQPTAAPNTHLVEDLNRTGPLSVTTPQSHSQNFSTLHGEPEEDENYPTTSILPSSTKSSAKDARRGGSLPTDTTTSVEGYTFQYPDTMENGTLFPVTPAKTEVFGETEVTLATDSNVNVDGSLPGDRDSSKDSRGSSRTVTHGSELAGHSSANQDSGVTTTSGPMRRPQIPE
Kind of assay: ITC; TGM D4-5 fragments with mouse or human CD44 extracellular domain; 25 mM Na2HPO4, 50 mM NaCl, pH 6.0, 35 °C; two datasets globally fit (NITPIC, SEDPHAT). The following applies: both partners purified. (ITC needs no label: the signal is the heat of the interaction.)

For assay [2], the target named is T2, Human CD44 extracellular domain, recombinant (human, UniProt P16070 21-649).
T2 construct: CD44, human, extracellular domain; also called hCD44; source: expi293 cells, purified from the conditioned medium
T2 sequence (P16070 21-649): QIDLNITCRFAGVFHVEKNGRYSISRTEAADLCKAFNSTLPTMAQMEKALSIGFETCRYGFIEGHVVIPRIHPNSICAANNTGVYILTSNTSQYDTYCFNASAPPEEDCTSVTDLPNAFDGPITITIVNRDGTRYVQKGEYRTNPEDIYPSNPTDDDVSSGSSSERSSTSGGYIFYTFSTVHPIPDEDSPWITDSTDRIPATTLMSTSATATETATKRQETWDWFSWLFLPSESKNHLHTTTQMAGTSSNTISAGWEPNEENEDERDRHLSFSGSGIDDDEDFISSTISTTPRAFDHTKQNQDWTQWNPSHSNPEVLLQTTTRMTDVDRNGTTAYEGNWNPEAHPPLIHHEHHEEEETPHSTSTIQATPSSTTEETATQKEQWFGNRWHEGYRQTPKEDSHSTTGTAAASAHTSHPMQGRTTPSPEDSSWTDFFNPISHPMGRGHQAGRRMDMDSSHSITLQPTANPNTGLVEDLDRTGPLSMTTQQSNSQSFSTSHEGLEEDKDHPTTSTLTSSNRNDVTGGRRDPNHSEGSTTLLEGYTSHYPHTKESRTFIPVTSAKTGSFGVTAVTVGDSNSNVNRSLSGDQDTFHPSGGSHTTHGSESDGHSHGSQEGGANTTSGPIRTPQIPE
The assay is described as above. Conditions: both partners purified.

The text below walks through data of PMC11723922, “The TGF-β mimic TGM4 achieves cell specificity through combinatorial surface co-receptor binding” (EMBO Reports, 2024).

B1: TGM4 D4-5, recombinant (domain or fragment)
chain: RCKPLETNVSVHYEYFTMTNETGRKEGTPAEVDKGGKYPQHTCVRKFCDKSPYTCSVKGPIFGECLDGQWNFTALDECLNARGCNSDDLFDKLGFEGVMVREEEGSDSYKDDFVRFYATGSKVNAECKGKTVQLECSDGEWHDPGTKTVHRCTKEGIRAL
modifications: biotinylated in the streptavidin pull-downs; Alexa Fluor 488 label in flow cytometry; unlabelled in ITC and as competitor
Turning to B1, the figures for the Kd in assay [1] and in assay [2] were 20 nM and 78 nM, respectively.

B2: TGM1 D4-5, recombinant (domain or fragment)
chain: RCKPLEANESVHYEYFTMTNETDKKKGPPAKVGKSGKYPEHTCVKKVCSKWPYTCSTGGPIFGECIGATWNFTALMECINARGCSSDDLFDKLGFEKVIVRKGEGSDSYKDDFARFYATGSKVIAECGGKTVRLECSNGEWHEPGTKTVHRCTKDGIRTL
With B2, the Kd in assay [1] was 30 nM; in assay [2], 122 nM.

The term Kd denotes the free concentration of one partner at which half of the binding sites on the other are occupied at equilibrium, for simple one-to-one binding.
